Data set [1] concerns the molecule itself. The data set can be described thus: crystal structure; native source E. coli proteins already in the PDB, identified and solved by brute-force molecular replacement, not refined except to confirm the solution; oligomer seen in the crystal.
Data set [2] deals with the molecule itself. As to the kind of experiment: crystal structure; novel structures of native source E. coli proteins, solved by molecular replacement and refined; oligomer seen in the crystal.

We go through 8 proteins from article PMC3290569, “Macro-to-Micro Structural Proteomics: Native Source Proteins for High-Throughput Crystallization” (PLoS ONE, 2012).

For orientation: stoichiometry N means the number of molecules, sites or subunits per partner or assembly.

B1: heat shock protein 31 (HSP31) (natural protein, Escherichia coli, UniProt P31658 1-283, looked up)
chain: MTVQTSKNPQVDIAEDNAFFPSEYSLSQYTSPVSDLDGVDYPKPYRGKHKILVIAADERYLPTDNGKLFSTGNHPIETLLPLYHLHAAGFEFEVATISGLMTKFEYWAMPHKDEKVMPFFEQHKSLFRNPKKLADVVASLNADSEYAAIFVPGGHGALIGLPESQDVAAALQWAIKNDRFVISLCHGPAAFLALRHGDNPLNGYSICAFPDAADKQTPEIGYMPGHLTWYFGEELKKMGMNIINDDITGRVHKDRKLLTGDSPFAANALGKLAAQEMLAAYAG
notes: Hsp31, Escherichia coli, native source protein; identified with PDB 1N57; the PDB entry is the previously deposited structure that identified the protein; the crystallised protein is the native one; source: purified from E. coli DH5α cells (whole-proteome fractionation)
In the case of B1, the binding result in data set [1] is listed as “binds”.

B2: Dihydrodipicolinate synthase (enzyme, Escherichia coli, UniProt P0A6L2 1-292, looked up)
chain: MFTGSIVAIVTPMDEKGNVCRASLKKLIDYHVASGTSAIVSVGTTGESATLNHDEHADVVMMTLDLADGRIPVIAGTGANATAEAISLTQRFNDSGIVGCLTVTPYYNRPSQEGLYQHFKAIAEHTDLPQILYNVPSRTGCDLLPETVGRLAKVKNIIGIKEATGNLTRVNQIKELVSDDFVLLSGDDASALDFMQLGGHGVISVTANVAARDMAQMCKLAAEGHFAEARVINQRLMPLHNKLFVEPNPIPVKWACKELGLVATDTLRLPMTPITDSGRETVRAALKHAGLL
notes: dihydrodipicolinate synthase, Escherichia coli, native source protein; identified with PDB 1DHP; the PDB entry is the previously deposited structure that identified the protein; the crystallised protein is the native one; source: purified from E. coli DH5α cells (whole-proteome fractionation)
B2: the binding result in data set [1] is on record as “binds”.

B3: MoaB (molybdopterin biosynthesis protein B) (natural protein, Escherichia coli, UniProt P0AEZ9 1-170, looked up)
chain: MSQVSTEFIPTRIAILTVSNRRGEEDDTSGHYLRDSAQEAGHHVVDKAIVKENRYAIRAQVSAWIASDDVQVVLITGGTGLTEGDQAPEALLPLFDREVEGFGEVFRMLSFEEIGTSTLQSRAVAGVANKTLIFAMPGSTKACRTAWENIIAPQLDARTRPCNFHPHLKK
notes: MoaB, molybdopterin biosynthesis protein B, Escherichia coli, native source protein; identified with PDB 1R2K; the PDB entry is the previously deposited structure that identified the protein; the crystallised protein is the native one; source: purified from E. coli DH5α cells (whole-proteome fractionation)
With B3, the binding result in data set [1] is listed as “binds”.

B4: Inorganic pyrophosphatase (enzyme, Escherichia coli, UniProt P0A7A9 1-176, looked up)
chain: MSLLNVPAGKDLPEDIYVVIEIPANADPIKYEIDKESGALFVDRFMSTAMFYPCNYGYINHTLSLDGDPVDVLVPTPYPLQPGSVIRCRPVGVLKMTDEAGEDAKLVAVPHSKLSKEYDHIKDVNDLPELLKAQIAHFFEHYKDLEKGKWVKVEGWENAEAAKAEIVASFERAKNK
notes: inorganic pyrophosphatase, Escherichia coli, native source protein; identified with PDB 1IPW; the PDB entry is the previously deposited structure that identified the protein; the crystallised protein is the native one; source: purified from E. coli DH5α cells (whole-proteome fractionation)
Turning to B4, the binding result in data set [1] is “binds”.

B5: Citrate synthase (enzyme, Escherichia coli, UniProt P0ABH7 1-427, looked up)
chain: MADTKAKLTLNGDTAVELDVLKGTLGQDVIDIRTLGSKGVFTFDPGFTSTASCESKITFIDGDEGILLHRGFPIDQLATDSNYLEVCYILLNGEKPTQEQYDEFKTTVTRHTMIHEQITRLFHAFRRDSHPMAVMCGITGALAAFYHDSLDVNNPRHREIAAFRLLSKMPTMAAMCYKYSIGQPFVYPRNDLSYAGNFLNMMFSTPCEPYEVNPILERAMDRILILHADHEQNASTSTVRTAGSSGANPFACIAAGIASLWGPAHGGANEAALKMLEEISSVKHIPEFVRRAKDKNDSFRLMGFGHRVYKNYDPRATVMRETCHEVLKELGTKDDLLEVAMELENIALNDPYFIEKKLYPNVDFYSGIILKAMGIPSSMFTVIFAMARTVGWIAHWSEMHSDGMKIARPRQLYTGYEKRDFKSDIKR
notes: citrate synthase, Escherichia coli, native source protein; identified with PDB 1NXG; the PDB entry is the previously deposited structure that identified the protein; the crystallised protein is the native one; source: purified from E. coli DH5α cells (whole-proteome fractionation)
On to B5, for which the binding result in data set [1] is on record as “binds”.

B6: Catalase HPII (enzyme, Escherichia coli, UniProt P21179 1-753, looked up)
chain: MSQHNEKNPHQHQSPLHDSSEAKPGMDSLAPEDGSHRPAAEPTPPGAQPTAPGSLKAPDTRNEKLNSLEDVRKGSENYALTTNQGVRIADDQNSLRAGSRGPTLLEDFILREKITHFDHERIPERIVHARGSAAHGYFQPYKSLSDITKADFLSDPNKITPVFVRFSTVQGGAGSADTVRDIRGFATKFYTEEGIFDLVGNNTPIFFIQDAHKFPDFVHAVKPEPHWAIPQGQSAHDTFWDYVSLQPETLHNVMWAMSDRGIPRSYRTMEGFGIHTFRLINAEGKATFVRFHWKPLAGKASLVWDEAQKLTGRDPDFHRRELWEAIEAGDFPEYELGFQLIPEEDEFKFDFDLLDPTKLIPEELVPVQRVGKMVLNRNPDNFFAENEQAAFHPGHIVPGLDFTNDPLLQGRLFSYTDTQISRLGGPNFHEIPINRPTCPYHNFQRDGMHRMGIDTNPANYEPNSINDNWPRETPPGPKRGGFESYQERVEGNKVRERSPSFGEYYSHPRLFWLSQTPFEQRHIVDGFSFELSKVVRPYIRERVVDQLAHIDLTLAQAVAKNLGIELTDDQLNITPPPDVNGLKKDPSLSLYAIPDGDVKGRVVAILLNDEVRSADLLAILKALKAKGVHAKLLYSRMGEVTADDGTVLPIAATFAGAPSLTVDAVIVPCGNIADIADNGDANYYLMEAYKHLKPIALAGDARKFKATIKIADQGEEGIVEADSADGSFMDELLTLMAAHRVWSRIPKIDKIPA
notes: catalase HPII, Escherichia coli, native source protein; identified with PDB 1GG9; the PDB entry is the previously deposited structure that identified the protein; the crystallised protein is the native one; source: purified from E. coli DH5α cells (whole-proteome fractionation)
Regarding B6, the binding result in data set [1] was “binds”.

B7: Methylglyoxal reductase (YghZ) (enzyme, Escherichia coli, UniProt Q46851 1-346, looked up)
chain: MVWLANPERYGQMQYRYCGKSGLRLPALSLGLWHNFGHVNALESQRAILRKAFDLGITHFDLANNYGPPPGSAEENFGRLLREDFAAYRDELIISTKAGYDMWPGPYGSGGSRKYLLASLDQSLKRMGLEYVDIFYSHRVDENTPMEETASALAHAVQSGKALYVGISSYSPERTQKMVELLREWKIPLLIHQPSYNLLNRWVDKSGLLDTLQNNGVGCIAFTPLAQGLLTGKYLNGIPQDSRMHREGNKVRGLTPKMLTEANLNSLRLLNEMAQQRGQSMAQMALSWLLKDDRVTSVLIGASRAEQLEENVQALNNLTFSTKELAQIDQHIADGELNLWQASSDK
notes: methylglyoxal reductase YghZ, Escherichia coli, native source protein; identified from the electron density after molecular replacement; source: purified from E. coli DH5α cells (heparin sepharose, phenyl sepharose, MonoQ)
Regarding B7, the “stoichiometry N” value in data set [2] came out at 4.

B8: Ariginosuccinate lyase (enzyme, Escherichia coli, UniProt P11447 1-457, looked up)
chain: MALWGGRFTQAADQRFKQFNDSLRFDYRLAEQDIVGSVAWSKALVTVGVLTAEEQAQLEEALNVLLEDVRARPQQILESDAEDIHSWVEGKLIDKVGQLGKKLHTGRSRNDQVATDLKLWCKDTVSELLTANRQLQSALVETAQNNQDAVMPGYTHLQRAQPVTFAHWCLAYVEMLARDESRLQDALKRLDVSPLGCGALAGTAYEIDREQLAGWLGFASATRNSLDSVSDRDHVLELLSAAAIGMVHLSRFAEDLIFFNTGEAGFVELSDRVTSGSSLMPQKKNPDALELIRGKCGRVQGALTGMMMTLKGLPLAYNKDMQEDKEGLFDALDTWLDCLHMAALVLDGIQVKRPRCQEAAQQGYANATELADYLVAKGVPFREAHHIVGEAVVEAIRQGKPLEDLPLSELQKFSQVIDEDVYPILSLQSCLDKRAAKGGVSPQQVAQAIAFAQARLG
notes: argininosuccinate lyase (printed: Ariginosuccinate lyase), Escherichia coli, native source protein; identified with PDB 1TJ7; the PDB entry is the previously deposited structure that identified the protein; the crystallised protein is the native one; also called Arginosuccinate lyase; source: purified from E. coli DH5α cells (whole-proteome fractionation)
Take B8: in data set [1], the binding result is recorded as “binds”.
